Two molecules from publication PMC7707563, “Lack of evidence for expression and function of IL-39 in human immune cells” (PLoS ONE, 2020) can be followed below.

Assay [1] has as its target human IL-23 receptor on HEK-Blue IL-23 cells (human) (UniProt Q5VWK5).
Assay [2] deals with T1, human IL-23 p19 (aa20-189) (human, UniProt Q9NPF7 20-189).
T1 construct: human IL-23 p19 subunit, aa20-189, ORF in the mammalian expression vector pRS5a, untagged; The stated range lacks the protein's own signal peptide, yet the protein is secreted; also called IL-23A-p19; source: HEK293FT, transfected (pRS5a-IL23p19), in concentrated supernatant
T1 sequence (looked up): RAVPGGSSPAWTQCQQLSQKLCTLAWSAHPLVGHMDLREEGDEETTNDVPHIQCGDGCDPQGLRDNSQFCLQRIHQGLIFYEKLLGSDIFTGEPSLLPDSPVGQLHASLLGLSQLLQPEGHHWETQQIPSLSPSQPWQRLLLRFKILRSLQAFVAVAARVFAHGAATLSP
Kind of assay: ELISA; sandwich: plate coated with anti-p19 antibody, concentrated supernatants of p19 and EBI3-His transfected HEK293FT cells 2 hrs at room temperature, detection with biotinylated EBI3 antibody and HRP-Avidin. Particulars: partners not purified. On the technique in general: In an ELISA, binding on a coated surface is turned into a signal by an enzyme label.

Sequence of human IL-23 receptor on HEK-Blue IL-23 cells (human) (Q5VWK5 24-629): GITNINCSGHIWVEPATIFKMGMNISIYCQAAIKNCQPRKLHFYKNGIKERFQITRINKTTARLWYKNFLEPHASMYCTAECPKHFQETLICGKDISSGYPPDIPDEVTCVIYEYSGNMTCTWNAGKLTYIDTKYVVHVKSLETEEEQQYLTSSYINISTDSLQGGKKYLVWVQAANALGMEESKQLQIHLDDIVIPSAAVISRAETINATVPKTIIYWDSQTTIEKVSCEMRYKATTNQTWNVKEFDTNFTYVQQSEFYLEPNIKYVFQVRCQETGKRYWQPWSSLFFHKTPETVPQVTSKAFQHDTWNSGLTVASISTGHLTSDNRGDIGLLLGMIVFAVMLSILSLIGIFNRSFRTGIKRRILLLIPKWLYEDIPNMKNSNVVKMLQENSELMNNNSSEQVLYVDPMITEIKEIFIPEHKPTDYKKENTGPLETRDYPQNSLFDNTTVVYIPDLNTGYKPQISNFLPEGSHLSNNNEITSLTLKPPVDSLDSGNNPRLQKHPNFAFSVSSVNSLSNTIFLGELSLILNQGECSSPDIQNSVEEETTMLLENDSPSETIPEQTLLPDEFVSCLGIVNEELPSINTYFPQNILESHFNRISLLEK

For “recombinant human IL-23 (from UniProt Q9NPF7 20-189; P29460 23-328) (complex)”, in assay [1], the STAT3 activity (SEAP reporter) over background in HEK-Blue IL-23 cells, various concentrations of IL-23, concentration-dependent; number printed for 2 pM IL-23 is 2.5 fold.

B1: C-terminally 10 x His-tagged EBI3 (natural protein, human, UniProt Q14213 21-229, looked up)
chain: RKGPPAALTLPRVQCRASRYPIAVDCSWTLPPAPNSTSPVSFIATYRLGMAARGHSWPCLQQTPTSTSCTITDVQLFSMAPYVLNVTAVHPWGSSSSFVPFITEHIIKPDPPEGVRLSPLAERQLQVQWEPPGSWPFPEIFSLKYWIRYKRQGAARFHRVGPIEATSFILRAVRPRARYYVQVAAQDLTDYGELSDWSLPATATMSLGK
notes: human Epstein-Barr Virus-induced 3 (EBI3), aa21-229, ORF in the mammalian expression vector pRS5a; The limits aa21-229 are printed for EBI3; also called EBI3-His; His-EBI3; source: HEK293FT, transfected (pRS5a-EBI3-His10), in concentrated supernatant; not shown: His10, C-terminal, kept
B1: the “fold increase in optical density against supernatants of mock or single transfected cells” value in assay [2] is about 2.5 fold.
